This experiment concerns the target human FcγRIIIa-V158 (CD16a, V158 allotype) (human) (UniProt P08637).

In turn, “P-TMab (trastuzumab produced by the glycoengineered rice cell line PhytoRice, line PHYTO101) (antibody)” gave an EC50 of the in vitro ADCC assay (luminescence, Bio-Glo reagent; BT-474 target cells, Jurkat cells) of 0.017 µg/mL.
